# Experimental data published in US20180271994A1 (published 2018).
# B1: anti-MUC18 HscFv-displaying phage (scFv)
# scFv: GRGALVESGPGLVKPSETLFLTCTVSGGSISSYYWSWIRQPAGKGLEWIAYIYYSGSTNYNPSLKSRVTISVDTSNNQFSLKLSSVTAADTAVYYCAKLTAAGGHFDPWGQGTLVTVSSGGGGSGGGGSGGGGSDIVMTQSPSSLSASIGDRVTITCRASQGISNFLAWFQQKPGKAPKSLIYAASSLQSGVPSKFSGSGSGTDFTLAISSLQPEDFATYYCLQDSDYPLTFGGGTKLEIKR
# B2: anti-MUC18 human immunotoxin (other)
# chain: GRGALVESGPGLVKPSETLFLTCTVSGGSISSYYWSWIRQPAGKGLEWIAYIYYSGSTNYNPSLKSRVTISVDTSNNQFSLKLSSVTAADTAVYYCAKLTAAGGHFDPWGQGTLVTVSSGGGGSGGGGSGGGGSDIVMTQSPSSLSASIGDRVTITCRASQGISNFLAWFQQKPGKAPKSLIYAASSLQSGVPSKFSGSGSGTDFTLAISSLQPEDFATYYCLQDSDYPLTFGGGTKLEIKRASGGPEGGSRHRQPRGWEQLADVVSLTCPVAAGECAGPADSGDALLERNYPTGAEFLGDGGAISFSTRGTQNWTVERLLQAHRQLEEGGYVFVGYHGTFLEAAQSIVFGGVRARSQDLDAIWAGFYIAGDPALAYGYAQDQEPDAAGRIRNGALLRVYVPRSSLPGFYATGLTLAAPEAAGEVERLIGHPLPLRLDAITGPEEAGGRLETILGWPLAERTVVIPSAIPTDPRNVGGDLDPSSIPDSEAAISALPDYASQPGKPPKDEL
# Tests used:
# [1] = biological target: immunodominant epitope of the MUC18 antigen; assay: phage ELISA, peptide coated at 100 ug/ml (control phage)
# [2] = biological target: immunodominant epitope of the MUC18 antigen; assay: phage ELISA, peptide well against negative control well
# [3] = biological target: immunodominant epitope of the MUC18 antigen; assay: phage ELISA, peptide coated at 100 ug/ml
# [4] = biological target: unrelated peptide; assay: phage ELISA, well with unrelated peptide (control)
# [5] = biological target: T1, MUC18 antigen (human, UniProt P43121 24-646); assay: cell-based or functional assay
# T1 sequence (looked up): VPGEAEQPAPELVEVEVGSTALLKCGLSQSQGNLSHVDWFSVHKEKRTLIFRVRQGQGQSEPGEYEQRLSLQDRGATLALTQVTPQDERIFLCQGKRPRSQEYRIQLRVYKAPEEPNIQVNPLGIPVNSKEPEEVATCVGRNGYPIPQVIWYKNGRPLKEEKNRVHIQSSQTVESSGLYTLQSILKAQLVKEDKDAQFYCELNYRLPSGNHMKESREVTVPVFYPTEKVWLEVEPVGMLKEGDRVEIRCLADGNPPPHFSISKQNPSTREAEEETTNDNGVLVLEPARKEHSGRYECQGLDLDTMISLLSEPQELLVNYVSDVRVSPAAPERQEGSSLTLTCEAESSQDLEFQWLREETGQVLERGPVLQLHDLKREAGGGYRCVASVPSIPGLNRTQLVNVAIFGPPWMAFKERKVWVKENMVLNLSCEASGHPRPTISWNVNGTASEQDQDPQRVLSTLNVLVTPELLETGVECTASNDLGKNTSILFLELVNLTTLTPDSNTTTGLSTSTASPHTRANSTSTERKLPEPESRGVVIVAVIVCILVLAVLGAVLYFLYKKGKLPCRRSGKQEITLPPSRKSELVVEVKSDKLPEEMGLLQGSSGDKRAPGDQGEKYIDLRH
molecule,measurement,setting,value
unrelated phage,mean absorbance (OD 450 nm),[1],0.17 OD450
B1,fold OD over negative control well,[2],4 fold
same,mean absorbance (OD 450 nm),[3],1.6 OD450
same,mean absorbance (OD 450 nm),[4],0.1 OD450
B2,"IC50, MTT assay, A375 cells, 24 hours",[5],~2.1 nM
same,"IC50, MTT assay, DU145 cells, 24 hours",[5],~6.1 nM
